{"source": "the nanobody polyreactivity screen of Harvey et al. (2022)", "data": [{"experiment": "yeast display, Sf9 membrane polyspecificity reagent, FACS + sequencing; frameworks hold sequencing errors", "outline": "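Nanobodies came from a synthetic yeast display library in Saccharomyces cerevisiae BJ5465, induced with galactose for 36–48 hours and stained for 1 hour at 4 °C with 10% biotinylated, detergent-solubilized Sf9 membrane reagent. Cells were enriched on streptavidin microbeads and then FACS-sorted, with low and high (top ~1%) gates set on anti-HA fluorescence for expression and streptavidin fluorescence for reagent binding. Each polyreactivity label reflects the gate a clone came from. Genes were amplified by colony PCR, sequenced by MiSeq 2 × 250 and filtered by CDR length.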", "values": [{"sequence": "QVQLVESGGGLVQAGGSLRLSCAASGSIFNHYAMGWYRQAPGKERELVATITDGGSTYYADSVKGRFTISRDNAKNTVYLQMNSLKPEDTAVYYCATDRRRFWVIYYYWGQGTQVTVSS", "polyreactivity (PSR sort gate)": "low polyreactivity"}, {"sequence": "QVQLVESGGGLVQAGGSLRLSCAASGFTFITNAMGWYRQAPGKERELVAAISSSGGRTYYADSVKGRFTISRDNAKNTVYLQMNSLKPEDTAVYYCNADRSLLYSRKIEYDYWGQGTQVTVSS", "polyreactivity (PSR sort gate)": "low polyreactivity"}, {"sequence": "QVQLVESGGGLVQAGGSLRLSCAASGSILPRYAMGWYRQAPGKERELVAAITSGGITSYADSVKGRFTISRDNAKNTVYLQMNSLKPEDTAVYYCAADWYVIYDYWGQGTQVTVSS", "polyreactivity (PSR sort gate)": "low polyreactivity"}, {"sequence": "QVQLVESGGGLVQAGGSLRLSCAASGRTFRVYAMGWYRQAPGKERELVAAISGSGGSTYYADSLKGRFTISRDNAKNTVYLQMNSLKPDDTAVYYCAARYFGPGWRDRDYNYWAQGTQVTVSS", "polyreactivity (PSR sort gate)": "high polyreactivity"}, {"sequence": "QVQLVESGGGLVQAGGSLRLSCAASGSTQRFYAMGWYRQAPGKERELVAVISRGGSTYFADSVKGRFTISRDNAKNTVYLQMNSLKPEDTAVYYCAAYHRTSAARPIYDYWGQGTQVTVSS", "polyreactivity (PSR sort gate)": "low polyreactivity"}, {"sequence": "QVQLVESGGGLVQAVGSHRLSCAASGSIFFWYTMGWYRQPPGKERELVATITGSGSSTTYADSVKGRFTISRDNAKNTVYLQMNSLKPVDTAVYYCAAADIIDHSFPYDYWGQGTQVTVSS", "polyreactivity (PSR sort gate)": "low polyreactivity"}, {"sequence": "QVQLVESGGGLVQAGGSLRLSCAASGSTFTLNAMGWYRQAPGKERELVADISWSSGRTYYADSVKGRFTISRDTEKNTVYLQMNSLKPEDTAVYYCATDDLSIVKFYAYYPEFDYWGQGTQVTVSS", "polyreactivity (PSR sort gate)": "low polyreactivity"}, {"sequence": "QVQLVESGGGLVQAGGSLRLSCAASGSTFPGYAMGWYRQAPGKERELVAAITAGGGSTYYADSVKGRFTISRDNAKNSVYLLMKSLKPEDTAVYYCAKRYSYYGWRRYDYWGQGTQVTVSS", "polyreactivity (PSR sort gate)": "high polyreactivity"}, {"sequence": "QVQLVESGGGLVQAGGSLRLSCAASGIIFYAYAMGWYRQAPGKERELVARISRGGSTNYADSVKGRFTISRDNAKNTFYLQMNSLKPEDTAVYYCAAYYAYLRYGGLYEYWGQGTQVTVSS", "polyreactivity (PSR sort gate)": "high polyreactivity"}, {"sequence": "QVQLVESGGGLVQAGGSLRLSCAASGLIFRYYAMGWYRQAPGKERELVASISGSGGSTYYADSVKGRFTISRDNAKNTVYLQMNSLKPEDTAVYYCAATLAVYRRGPRYNYWGQGTQVTVSS", "polyreactivity (PSR sort gate)": "high polyreactivity"}, {"sequence": "QVQLVESGGGLVQAGGSLRLICAASGRTFKYYAMGWYRPAPGKERELVATISFRGGSTYYADSVKGRFTISRDNAKNTVYLQMNSLKPEDTSVYYCAATTPYYTPRRRNDYWGQGTQVTVSS", "polyreactivity (PSR sort gate)": "high polyreactivity"}, {"sequence": "QVQLVESGGGIVQAGCSLRLSCAPSGSTFKNNAMGWDRQAPGKEREFVASIYKRGGSTYYADSVKGRFTISRDNAKNTVYLQKKSLTPEDTAVYYCAKTYWSYGWSHGDYGEVDYWGQGTQVNVSS", "polyreactivity (PSR sort gate)": "high polyreactivity"}, {"sequence": "QVQLVESGGGLVQAGGSLRLSCAASGRIIQYNAMGWYRQAPGKERELVAAISWRSGRTYYADSVKGRFTISRDNAKNTVYLQMNSLKPEDTAVYYCAATSRTSWYGYWGQGTQVTVSS", "polyreactivity (PSR sort gate)": "high polyreactivity"}, {"sequence": "QVQLVESGGGLVQAGGSLRLSCAASGFIFANNAMGWYRQAPGKERELVAAITSRGASTYYADSVKGRFTISRDNAKNTVYLQMNSLKPEDTAVYYCAKATYHYRRYYWGQGTQVTVSS", "polyreactivity (PSR sort gate)": "high polyreactivity"}, {"sequence": "QVQLVESGGGLVQAGGSLRLSCAASGSIFVGYGALGWYRQAHGKERELVAAITSGTSTYYADSVKGRFTISRDNAKNTVYLQINSLKPEDTAVYYCAARGFLKYVTEFDYWGQGTQVTVSS", "polyreactivity (PSR sort gate)": "low polyreactivity"}, {"sequence": "QVQLVESGGGLVQAGGSLRLSCAASGRTFSYSAMGWYRQAPGKERELVAAITGSGGRTYYADSVKGRFTISRDNAKNTVYLQMNSLKPEDTAVYYCAARYLYEGQLRPIRYYHYGYWGQGTQVTVSS", "polyreactivity (PSR sort gate)": "high polyreactivity"}, {"sequence": "QGQLVESGGGLDQAGGSLRLSCAASGSTFPVYAMGLYRQAPGKDRELVAAITSGVSTNYADSVKGRFTISRDNAKNTVYVQKNSMKPEDTAVYYCAKEFGLLPIRDYYWGQGTQVTESS", "polyreactivity (PSR sort gate)": "low polyreactivity"}, {"sequence": "QVQLVESGGGLVQAGGSLRLSCAASGSTSTYYAMGWYRQAPGKERELVAAITLGAGRTYADSVKGRFTISRDNAKNTVYLQMNSLKPEDTAVYYCAADSHIDHGKWAYDYWGQGTQVTVSS", "polyreactivity (PSR sort gate)": "low polyreactivity"}, {"sequence": "QVQLVESGGGLVQAGGSLRLSCAASGSIFYRNAMGWYRQAPGKERELVAAISSRGTRTYYADSVKGRFTISRDNAKNTVYLQMNSLKPEDTAVYYCAAADYRFYNGPYSRRWLYGYWGQGTQVTVSS", "polyreactivity (PSR sort gate)": "high polyreactivity"}, {"sequence": "QVQLVESGGGIVQAGGSLRLSCAASGSIYRYNTMGWYRQEPRKERELVATITRRGGSTYYADSVQGRFTISRDNAKNTVYLQMNSLKPEDTAVYYCNADYFGGPYNYWGQGTQVTVSS", "polyreactivity (PSR sort gate)": "low polyreactivity"}, {"sequence": "QVQLVESGGGLVQAGGSLRLSCAASGFTSRRYVMGWYRQAPGKERELVAAISSRGTSTYYADSVKGRFTISRDNAKNTVYLKMNSLKPEDTAVYYCAAVIRGRTRWLKYDYWGQGTQGTVSS", "polyreactivity (PSR sort gate)": "high polyreactivity"}, {"sequence": "QVQLVESGAGLVQAGGSLRLSCAASGFTFNYYAMGWYRQAPGKERELVATITTSGGITYYADSVKGRFTISRDNAKNTVYLQMNSLKPEDTAVYYCAAGSYSRYLYSLYFDFDYWGQGTQVTVSS", "polyreactivity (PSR sort gate)": "low polyreactivity"}, {"sequence": "QVQLVESGGGLVQAGGSLRLSCAASGSLSSRNAMGAYRQAPGKERELVAAITRGSSTNYADSVKGRFTISRDNAKNTVYLQMNSLKPEDTAVYYCARRYDPVYKGMGYWGQGTQVTVSS", "polyreactivity (PSR sort gate)": "low polyreactivity"}, {"sequence": "QVQLVESGGGLVQAGGILRLSCAASGSTFFSNTKGWYRQAPGKERELVAAITDSGTSTYYADSVKGRFTISRDIAKNTVYLQMNSLKPEDTAVYYGDAYPSGWYDYWGHGTQVTVSS", "polyreactivity (PSR sort gate)": "low polyreactivity"}, {"sequence": "QVQLVESGGGLVQAGGSLRLSCAASGSTFATDAMGWYRQAPGTERELVAVISRSGGSTYYADSVKGRFTISRDNAKNTVYLQMNSLKPEDTAVYYCAARLVNKSRWGTLRYDYWGQGTQVTVSS", "polyreactivity (PSR sort gate)": "high polyreactivity"}, {"sequence": "QVQLVESGGGLVQAGGSLRLSCAASGSIFDVNAMGRYRQAPGKERELVAAISDSGGSTYYADSVKGRFTISRDNAKNTVYLQMNSLKPEDTAVYYCNADWSWYNYYDFDYWGQGTQVTVSS", "polyreactivity (PSR sort gate)": "low polyreactivity"}, {"sequence": "QVQLVESGGGLVQAGGSLRLSCAASGRIYCGYTMGWYRPAPGKERELDATITGNGAITRYADSVKGRFTISRDNAKYTVYLQMTSLKPEDTAVYYCAADSGREPKGPFRLTYWGQGTQVTVSS", "polyreactivity (PSR sort gate)": "high polyreactivity"}, {"sequence": "QVQLVESGGGLVQAGGSLRLSCADSGIIFAYYAMGWYRQAPGKERELVAAITGGGVRTYYADSVKGRFTISRDNAKNTVYLQMNSLKPEDTAVYDCIATGSTASGRVNYWGQGTQVTVSS", "polyreactivity (PSR sort gate)": "high polyreactivity"}, {"sequence": "QVQLVESGGGLVQAGGSLRLSCAASGIIFDYYAMGWYRPAPGKERELVAAINWNGGTPYYADSVKGRFTISRDYAKKTVFLQMNSLKPEDSAVYYCNTRGRYLMVDWGHGTQVTVSS", "polyreactivity (PSR sort gate)": "high polyreactivity"}, {"sequence": "QVQIVESGGGLVQAGGSLRLSCAASGITFVGNAMVWYRQAPGKERELVAVISRGDSTNYADSVKGLFTISRDNAKNTVYLQMNSLKPEDTAVYYCAADGSRAGQEGNDYWGQGTQVSVSS", "polyreactivity (PSR sort gate)": "low polyreactivity"}, {"sequence": "QVQLVESGGGLVQAGGSLRLSCAASGRTFALYAMGWYRQAPGKERELVAAITSGGSTNYADSVKGRFTISRDNAKNTVYVQMNSLKPEDTAVYYCNADDSSKDVIGLDYWGQGTQVTVSS", "polyreactivity (PSR sort gate)": "low polyreactivity"}, {"sequence": "QVQLVESGGGLVQAGGSLRLSCAASGSTFAQYAMGWYRQPPRKERELVAAISRRGASTYYADSVKGLFTISRDIAKNTVYLQMNSLKPEDTAVYYCNAVRGEKMGYWGQGTQVTVSS", "polyreactivity (PSR sort gate)": "high polyreactivity"}, {"sequence": "QVQLVESGGGLVQAGGSLRLSCAASGFTFEENAMGWYRQAPGKERELVAAINWSGGNTYYADSVKGRFTISRDNAKNTVYLQMNSLKPEDTAVYYCAADSPRYYYWVGPYYGYDYWGQGTQVTVSS", "polyreactivity (PSR sort gate)": "high polyreactivity"}, {"sequence": "QVQLVESGGGLVLAGGSLRLSCAASGSTFARNAMGWYRHAPGKERELVAAISWNGGRTYYADSVKGRFTISRDNAKNTVYLQMNSLKPEDTAVYYCAAKYVKDYWSDFDYWGQGTQVTVSS", "polyreactivity (PSR sort gate)": "high polyreactivity"}, {"sequence": "QVQLEESGGGLVQAGGSLRLSCAASGRTLGGYAMGWYRQAPGKERELVASITARGGSTYYADSVKGRFTISRDNAKNTVYLQMNSLKPEDTAVYYCAARSGYYRGGFYYWGQGTQVTVSS", "polyreactivity (PSR sort gate)": "high polyreactivity"}, {"sequence": "QVQLVESGGGLVQAGGRLRLSSAASGSTFHGYAMGWYRQEPGKERELVAAITSGDSTNYADSVKGRFTISRDNAKKTVYLQMNSLKPEDTAVYDCNAEGSSVLTGYWGYPPYWDTYVYWGQGTQVTVSA", "polyreactivity (PSR sort gate)": "low polyreactivity"}, {"sequence": "QVQLVESGGGLVQAGGSLRLSCAASGSTLTYYAMGWYRQAPGKERELVAAISVSGGRTYYADSVKGRFTISRDNAKYTVYLQMNSLKPEDTAVYYCNALSSRAGGRGYDYWGQGTHVTVSS", "polyreactivity (PSR sort gate)": "high polyreactivity"}, {"sequence": "QVQLVESGGGLVQAGGSLRLSCAASGFTFFIYAMGWYRQAPGKERELVAAISLSGTSTYYADSVKGRFTISRDNAKNSVYLQMNSLKPEDTAVYYCAKDGAYWTYYSGYDYWGQVTQVTVSS", "polyreactivity (PSR sort gate)": "low polyreactivity"}, {"sequence": "QVQLGESGGGLVQAGGSLRLSCAASGRIFWYNAMGWYRQAPGKERELVAGIRSGGSTNYADSVKGRFTISRDNAKNTVYLQMNSLKPDDTAVYYCNVDHEARKLHVSIKQLSDHWGQGTQVTVSS", "polyreactivity (PSR sort gate)": "low polyreactivity"}, {"sequence": "QVQLVESGGGLVQAGGSLRLSCAASGRIFNSYGMGWYRHAPGKEREFVAAISRSGGITYYADSVKGRFTISRDNAKNTVYLQMNSLKPEDSAVYYCAADYYWRRQRQVGYWGQGTQVTVSS", "polyreactivity (PSR sort gate)": "high polyreactivity"}, {"sequence": "QVQLVESGGGLVQAGGSLRLSCAASGSIFYQNAMGWYRHAPGKERELVAAITSDGSTYYADSVKGRFTISRDNAKKTVYLQMNSLKPEDTAVYYCAAEDYGHRYDYWGQGTQVTVSS", "polyreactivity (PSR sort gate)": "low polyreactivity"}, {"sequence": "QVQLVESGGGLVQAGGSLRLSCAASGNIFLDYAMGWYRQAPGKERELVAANTSRVDDTYYADSVKGRFTISLDNAKNTVYLQMTSLKPEFTAVDYCAADYSVTLLIGGYYWFYAFDYWGQGTQVTVSS", "polyreactivity (PSR sort gate)": "low polyreactivity"}, {"sequence": "QVQLVESGGGLVQAGGSLRLSCAASGFTFRLNAMGWYRQAPGKEREMVAAISSSGGRTYYADSVKGRFTISRDNAKNTVYLQLNSLKPEDTAVYYCAADYTTRYLDGVVARGYYWGQGTQVTVSS", "polyreactivity (PSR sort gate)": "high polyreactivity"}]}]}
